Results reported in patent US20120058906A1 (published 2012).
Positions count from the first letter of the chain named. One block for each binder: values may come before it.

Assays:
[1] = target: T1, rHuman IGF-1 sR (IGF-1 sR), CF (R&D Systems Cat#391-GR) (human, UniProt P08069 31-932); experiment: MSD ECL multi-spot plate, antigen immobilized; Fab 1000 nM; blank spot 630;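 note: blank spot per well as comparator with Hit at signal to blank ratio of 4 or more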
T1 construct: Purchased soluble receptor; also called insulin-like growth factor-1 soluble receptor; IGF-R1

[2] = target: T2, rHuman Notch-1/Fc Chimera, CF (R&D Systems Cat#3647-TK) (human, UniProt P46531 19-526); experiment: as above
T2 construct: Purchased Fc chimera; not shown: Fc portion of the purchased chimera

[3] = target: T3, rHuman P-Cadherin/Fc Chimera, CF (R&D Systems Cat#861-PC) (human, UniProt P22223 108-654); experiment: as above
T3 construct: Purchased Fc chimera; not shown: Fc portion of the purchased chimera

[4] = target: T4, rHuman Erythropoietin R/Fc Chimera, CF (R&D Systems Cat#963-ER) (human, UniProt P19235 25-250); experiment: MSD ECL titration, Fab 37.2 nM, blank 199;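 note: blank spot per well as comparator with Hit at signal to blank ratio of 4 or more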
T4 construct: Bought Fc chimera; also called EPO R/Fc; EPOR; Fc part of the bought chimera not given
T4 sequence: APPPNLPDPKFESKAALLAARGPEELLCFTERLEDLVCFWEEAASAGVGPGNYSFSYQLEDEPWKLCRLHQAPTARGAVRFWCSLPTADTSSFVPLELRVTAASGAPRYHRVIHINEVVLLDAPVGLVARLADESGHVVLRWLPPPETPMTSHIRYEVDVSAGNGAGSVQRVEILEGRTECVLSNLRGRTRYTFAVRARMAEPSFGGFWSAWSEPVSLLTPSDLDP

[5] = target: T5, rHuman IGF-1 sR (insulin-like growth factor-1 soluble receptor), CF (R&D Systems Cat#391-GR) (human, UniProt P08069 31-932); experiment: MSD ECL titration, Fab 37.2 nM, blank 199;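 note: blank spot per well as comparator with Hit at signal to blank ratio of 4 or more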
T5 construct: Bought soluble receptor; also called IGF-R1

[6] = target: T6, rHuman EGF R/Fc Chimera, CF (R&D Systems Cat#344-ER) (human, UniProt P00533 25-645); experiment: MSD ECL titration, Fab 37.2 nM, blank 199;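 note: blank spot per well as comparator with Hit at signal to blank ratio of 4 or more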
T6 construct: Bought Fc chimera; Fc part of the bought chimera not given

[7] = target: T7, Recombinant Human DLL4 (R&D Systems Cat#1506-D4/CF) (human, UniProt Q9NR61 27-524); experiment: MSD ECL titration, Fab 37.2 nM, blank 199;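 note: blank spot per well as comparator with Hit at signal to blank ratio of 4 or more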
T7 construct: Bought recombinant protein; also called rHuman DLL4; delta-like protein 4

[8] = target: T8, rHuman HGF R/c-MET/Fc Chimera, CF (R&D Systems Cat#358-MT/CF) (human, UniProt P08581 25-932); experiment: MSD ECL titration, Fab 37.2 nM, blank 199;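 note: blank spot per well as comparator with Hit at signal to blank ratio of 4 or more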
T8 construct: Bought Fc chimera; also called HGF R/Fc; Fc part of the bought chimera not given

[9] = target: T9, rHuman ErbB2/Fc Chimera, CF (R&D Systems Cat#1129-ER) (human, UniProt P04626 23-652); experiment: MSD ECL titration, Fab 37.2 nM, blank 199;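 note: blank spot per well as comparator with Hit at signal to blank ratio of 4 or more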
T9 construct: Bought Fc chimera; also called HER2/neu; Fc part of the bought chimera not given

[10] = target: T10, rHuman CD44/Fc Chimera, CF (R&D Systems Cat#3660-CD) (human, UniProt P16070 21-220); experiment: MSD ECL titration, Fab 37.2 nM, blank 199
T10 construct: Bought Fc chimera; Fc part of the bought chimera not given

[11] = target: T11, rHuman Notch-1/Fc Chimera, CF (R&D Systems Cat#3647-TK) (human, UniProt P46531 19-526); experiment: MSD ECL titration, Fab 37.2 nM, blank 199
T11 construct: Bought Fc chimera; Fc part of the bought chimera not given

[12] = target: T12, rHuman P-Cadherin/Fc Chimera, CF (R&D Systems Cat#861-PC) (human, UniProt P22223 108-654); experiment: MSD ECL titration, Fab 37.2 nM, blank 199
T12 construct: Bought Fc chimera; Fc part of the bought chimera not given

[13] = target: T13, rHuman ErbB2/Fc Chimera, CF (R&D Systems Cat#1129-ER) (human, UniProt P04626 23-652); experiment: ECL (MSD multi-spot), antigen on plate, Fab 50 nM
T13 construct: Bought Fc chimera; also called HER2/neu; not shown: Fc of the bought chimera

[14] = target: T14, rHuman HGF R/c-MET/Fc Chimera, CF (R&D Systems Cat#358-MT/CF) (human, UniProt P08581 25-932); experiment: ECL (MSD multi-spot), antigen on plate, Fab 50 nM
T14 construct: Bought Fc chimera; also called HGF R/Fc; not shown: Fc of the bought chimera

[15] = target: T15, rHuman EGF R/Fc Chimera, CF (R&D Systems Cat#344-ER) (human, UniProt P00533 25-645); experiment: ECL (MSD multi-spot), antigen on plate, Fab 50 nM
T15 construct: Bought Fc chimera; also called ErbB-1; not shown: Fc of the bought chimera

[16] = target: T16, rHuman Notch-1/Fc Chimera, CF (R&D Systems Cat#3647-TK) (human, UniProt P46531 19-526); experiment: ECL (MSD multi-spot), antigen on plate, Fab 50 nM
T16 construct: Bought Fc chimera; not shown: Fc of the bought chimera

[17] = target: T17, rHuman CD44/Fc Chimera, CF (R&D Systems Cat#3660-CD) (human, UniProt P16070 21-220); experiment: ECL (MSD multi-spot), antigen on plate, Fab 50 nM
T17 construct: Bought Fc chimera; not shown: Fc of the bought chimera

[18] = target: T18, Recombinant Human DLL4 (R&D Systems Cat#1506-D4/CF) (human, UniProt Q9NR61 27-524); experiment: ECL (MSD multi-spot), antigen on plate, Fab 50 nM
T18 construct: Bought recombinant protein; also called delta-like protein 4

[19] = target: T19, rHuman Erythropoietin R/Fc Chimera, CF (R&D Systems Cat#963-ER) (human, UniProt P19235 25-250); experiment: ECL (MSD multi-spot), antigen on plate, Fab 50 nM
T19 construct: Bought Fc chimera; also called EPO R/Fc; Epo R; not shown: Fc of the bought chimera
T19 sequence: T4 sequence

[20] = target: T20, rHuman P-Cadherin/Fc Chimera, CF (R&D Systems Cat#861-PC) (human, UniProt P22223 108-654); experiment: ECL (MSD multi-spot), antigen on plate, Fab 50 nM
T20 construct: Bought Fc chimera; also called CDH3; not shown: Fc of the bought chimera

ECL signal [1]: 1130 ECL signal | ECL signal [2]: 1180 ECL signal | ECL signal [3]: 1040 ECL signal
B1: Fab VH5-51_IGHD5-18*01>3_IGHJ4*01_G100K & V3-4_IGLJ1*01 (Fab, V domains shown)
VH: EVQLVQSGAEVKKPGESLKISCKGSGYSFTSYWIGWVRQMPGKGLEWMGIIYPGDSDTRYSPSFQGQVTISADKSISTAYLQWSSLKASDTAMYYCARRKYSYGYDYFDYWGQGTLVTVSS
VL: QTVVTQEPSFSVSPGGTVTLTCGLSSGSVSTSYYPSWYQQTPGQAPRTLIYSTNTRSSGVPDRFSGSILGNKAALTITGAQADDESDYYCVLYMGSGISYVFGTGTKVTVL
notes: It was expressed as a Fab: CH1 with tags from Plasmid A and lambda CL from Plasmid E; also called Fab No. 22

ECL signal [4]: 315 | ECL signal [5]: 295 | ECL signal [6]: 228 | ECL signal [7]: 16700 | ECL signal [8]: 207 | ECL signal [9]: 384 | ECL signal [10]: 356 | ECL signal [11]: 402 | ECL signal [12]: 649
B2: Fab VH1-46_IGHD6-6*01_IGHJ1*01 & L6_IGKJ1*01 (Fab, V domains shown)
VH: QVQLVQSGAEVKKPGASVKVSCKASGYTFTSYYMHWVRQAPGQGLEWMGIINPSGGSTSYAQKFQGRVTMTRDTSTSTVYMELSSLRSEDTAVYYCAREEYSSSSAEYFQHWGQGTLVTVSS
VL: not shown
notes: Expressed in E. coli as Fab: heavy chain with CH1 plus Flag and His tags from Plasmid A, kappa light chain constant region from Plasmid C; also called Fab No. 1

ECL signal [13]: 470 ECL signal | ECL signal [14]: 312 ECL signal | ECL signal [15]: 489 ECL signal | ECL signal [16]: 389 ECL signal | ECL signal [17]: 345 ECL signal | ECL signal [18]: 201000 ECL signal | ECL signal [19]: 533 ECL signal | ECL signal [20]: 470 ECL signal
B3: Fab VH1-46_IGHD6-6*01_IGHJ1*01_S102A_S103P_S104Y_H111Y & L6_IGKJ1*01 (Fab, V domains shown)
VH: B2 VH with S102A, S103P, S104Y, H111Y
VL: not shown
notes: Fab made in E. coli; The heavy chain also carries CH1 with Flag and His tags from Plasmid A, and the light chain carries kappa CL from Plasmid C
